Target: T1, isoform 165 of human VEGF-A (Peprotech) (human, UniProt P15692-4 27-191)
T1 construct: also called human VEGF165; VEGF 165
Assay: SPR, BIAcore-X; VEGF 165 coupled to CM5 chip; scFv injected; Langmuir 1:1

T1 sequence (P15692 other isoform, or with tags, fused parts or gaps limits assumed): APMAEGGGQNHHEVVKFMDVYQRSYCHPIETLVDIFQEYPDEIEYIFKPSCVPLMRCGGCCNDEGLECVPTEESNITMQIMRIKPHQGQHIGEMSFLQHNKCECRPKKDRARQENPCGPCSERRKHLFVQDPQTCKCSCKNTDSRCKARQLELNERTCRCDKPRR

B1: soluble scFv 2H1 antibody fragment (scFv, from another filing)
scFv: QQVQLVQSGAEVKKPGESLKISCKGSGYSFTSYWIGWVRQMPGKGLEWMGIIYPGDSDTRYSPSFQGQVTISADKSISTAYLQWSSLKASDTAMYYCARLVVRDTEIWGQGTMVTVSSAPQAKSSGSGSESKVDQAVVTQEPSLTVSPGGTVTLTCASSIGAVTSGNYPNWFQQRPGQPPRALIYSTSNKHSWTPARFSGSLLGGKAALTLSGAQPEDEAEYYCLLSYSGARPVFGGGTKLTVLGAAAGSEQKLISEEDLNSHHHHHH
Kd: 457 nM

— patent US20140086829A1 (BIOREC S A, published 2014)
